Assay results from patent US20140348865A1, “[…] ON AN HIV-1 V1V2 SITE-OF-VULNERABILITY” (The United States of America, as represented by the …, priority 2011, published 2014).

Experiments:
[1] = target: Env of HIV-1 strain 0439 (pseudovirus) (HIV-1)
[2] = target: Env of HIV-1 strain QH209 (pseudovirus) (HIV-1)
[3] = target: Env of HIV-1 strain CNE56 (pseudovirus) (HIV-1)
[4] = target: Env of HIV-1 strain 3873 (pseudovirus) (HIV-1)
[5] = target: Env of HIV-1 strain 6631 (pseudovirus) (HIV-1)
[6] = target: Env of HIV-1 strain ZM135 (pseudovirus) (HIV-1)

Which results are given for monoclonal antibody PG9?
neutralization IC50 (Q769.d22): 0.007 µg/mL; neutralization IC50 (0330.v4.c3): 0.018 µg/mL; neutralization IC50 (BB539.2B13): 0.106 µg/mL; neutralization IC50 (BB201.B42): 0.014 µg/mL; neutralization IC50 (UG037.8): 0.021 µg/mL; neutralization IC50 (R3265.c6): 1.3 µg/mL; neutralization IC50 (BI369.9A): 0.029 µg/mL; neutralization IC50 (Q769.h5): 0.002 µg/mL; neutralization IC50 (Q842.d12): 0.005 µg/mL; neutralization IC50 (BS208.B1): 0.031 µg/mL; neutralization IC50 (M02138): 0.122 µg/mL; neutralization IC50 [1]: > 50 µg/mL; neutralization IC50 (Q168.a2): 0.106 µg/mL; neutralization IC50 (RW020.2): 0.103 µg/mL; neutralization IC50 (R1166.c1): 1.55 µg/mL; neutralization IC50 (KNH1209.18): 0.367 µg/mL; neutralization IC50 (KER2018.11): 0.001 µg/mL; neutralization IC50 (Q259.17): 0.045 µg/mL; neutralization IC50 (C2101.c1): 0.026 µg/mL; neutralization IC50 (CNE3): 0.079 µg/mL; neutralization IC50 (6545_V4_C1): 0.095 µg/mL; neutralization IC50 (Q23.17): 0.007 µg/mL; neutralization IC50 (0260.v5.c36): 2.18 µg/mL; neutralization IC50 (3301_V1_C24): 0.281 µg/mL; neutralization IC50 (3468_V1_C12): 2.09 µg/mL; neutralization IC50 (620345.c1): 0.393 µg/mL; neutralization IC50 (6540.v4.c1): 0.035 µg/mL; neutralization IC50 (MI369.A5): 0.058 µg/mL; neutralization IC50 [2]: > 50 µg/mL; neutralization IC50 (MS208.A1): 0.071 µg/mL; neutralization IC50 (KER2008.12): 0.017 µg/mL; neutralization IC50 (C3347.c11): 0.038 µg/mL; neutralization IC50 (3415.v1.c1): 0.149 µg/mL; neutralization IC50 (3718.v3.c11): 0.05 µg/mL; neutralization IC50 (C1080.c3): 0.004 µg/mL; neutralization IC50 [3]: > 50 µg/mL; neutralization IC50 (Q461.e2): 3.01 µg/mL; neutralization IC80 (DU422.01 (HIV-1)): 15.8 µg/mL; neutralization IC80 (3168.V4.C10 (HIV-1)): 0.657 µg/mL; neutralization IC80 (ZM214.15 (HIV-1)): > 50 µg/mL; neutralization IC80 (ZM109.4 (HIV-1)): 2.64 µg/mL; neutralization IC80 (CNE7 (HIV-1)): 4.5 µg/mL; neutralization IC80 [4]: > 50 µg/mL; neutralization IC80 (TV1.29 (HIV-1)): 0.044 µg/mL; neutralization IC80 (SO18.18 (HIV-1)): 0.227 µg/mL; neutralization IC80 (CNE58 (HIV-1)): 0.068 µg/mL; neutralization IC80 (DU156.12 (HIV-1)): 0.143 µg/mL; neutralization IC80 (3637.V5.C3 (HIV-1)): > 50 µg/mL; neutralization IC80 (TZBD.02 (HIV-1)): 1.3 µg/mL; neutralization IC80 [5]: > 50 µg/mL; neutralization IC80 (ZM106.9 (HIV-1)): 6.58 µg/mL; neutralization IC80 (BR025.9 (HIV-1)): 0.215 µg/mL; neutralization IC80 (ZM197.7 (HIV-1)): 1.92 µg/mL; neutralization IC80 (ZM146.7 (HIV-1)): 6.78 µg/mL; neutralization IC80 (TZA125.17 (HIV-1)): 1.21 µg/mL; neutralization IC80 (DU151.02 (HIV-1)): 0.057 µg/mL; neutralization IC80 (CNE40 (HIV-1)): 20 µg/mL; neutralization IC80 (96ZM651_02 (HIV-1)): > 50 µg/mL; neutralization IC80 (CAP45.G3 (HIV-1)): < 0.023 µg/mL; neutralization IC80 (6785.V5.C14 (HIV-1)): 0.094 µg/mL; neutralization IC80 (ZM176.66 (HIV-1)): 0.05 µg/mL; neutralization IC80 (CAP210.E8 (HIV-1)): 0.501 µg/mL; neutralization IC80 (CH181.12 (HIV-1)): 0.04 µg/mL; neutralization IC80 (CH117.4 (HIV-1)): 0.03 µg/mL; neutralization IC80 [6]: > 50 µg/mL; neutralization IC80 (ZM215.8 (HIV-1)): 0.228 µg/mL; neutralization IC80 (CNE15 (HIV-1)): < 0.023 µg/mL; neutralization IC80 (0077_V1_C16 (HIV-1)): 0.343 µg/mL

Which results are given for monoclonal antibody PG16?
neutralization IC50 (Q769.d22): 0.01 µg/mL; neutralization IC50 (0330.v4.c3): 0.006 µg/mL; neutralization IC50 (BB539.2B13): 0.012 µg/mL; neutralization IC50 (BB201.B42): 0.003 µg/mL; neutralization IC50 (UG037.8): 0.001 µg/mL; neutralization IC50 (R3265.c6): 0.036 µg/mL; neutralization IC50 (BI369.9A): 0.007 µg/mL; neutralization IC50 (Q769.h5): 0.002 µg/mL; neutralization IC50 (Q842.d12): 0.001 µg/mL; neutralization IC50 (BS208.B1): 0.004 µg/mL; neutralization IC50 (M02138): 0.022 µg/mL; neutralization IC50 [1]: > 50 µg/mL; neutralization IC50 (Q168.a2): 0.031 µg/mL; neutralization IC50 (RW020.2): 0.07 µg/mL; neutralization IC50 (R1166.c1): 0.587 µg/mL; neutralization IC50 (KNH1209.18): 0.678 µg/mL; neutralization IC50 (KER2018.11): < 0.0006 µg/mL; neutralization IC50 (Q259.17): 0.028 µg/mL; neutralization IC50 (C2101.c1): 0.009 µg/mL; neutralization IC50 (CNE3): 0.173 µg/mL; neutralization IC50 (6545_V4_C1): 0.068 µg/mL; neutralization IC50 (Q23.17): 0.002 µg/mL; neutralization IC50 (0260.v5.c36): 2.1 µg/mL; neutralization IC50 (3301_V1_C24): < 0.023 µg/mL; neutralization IC50 (3468_V1_C12): 2.38 µg/mL; neutralization IC50 (620345.c1): > 50 µg/mL; neutralization IC50 (6540.v4.c1): 0.017 µg/mL; neutralization IC50 (MI369.A5): 0.011 µg/mL; neutralization IC50 [2]: > 50 µg/mL; neutralization IC50 (MS208.A1): 0.047 µg/mL; neutralization IC50 (KER2008.12): 0.006 µg/mL; neutralization IC50 (C3347.c11): 0.006 µg/mL; neutralization IC50 (3415.v1.c1): 0.036 µg/mL; neutralization IC50 (3718.v3.c11): 0.019 µg/mL; neutralization IC50 (C1080.c3): 0.001 µg/mL; neutralization IC50 [3]: > 50 µg/mL; neutralization IC50 (Q461.e2): 4.11 µg/mL; neutralization IC80 (DU422.01 (HIV-1)): 49.9 µg/mL; neutralization IC80 (3168.V4.C10 (HIV-1)): 0.515 µg/mL; neutralization IC80 (ZM214.15 (HIV-1)): > 50 µg/mL; neutralization IC80 (ZM109.4 (HIV-1)): > 50 µg/mL; neutralization IC80 (CNE7 (HIV-1)): 1.91 µg/mL; neutralization IC80 [4]: > 50 µg/mL; neutralization IC80 (TV1.29 (HIV-1)): 0.15 µg/mL; neutralization IC80 (SO18.18 (HIV-1)): 0.136 µg/mL; neutralization IC80 (CNE58 (HIV-1)): < 0.023 µg/mL; neutralization IC80 (DU156.12 (HIV-1)): < 0.023 µg/mL; neutralization IC80 (3637.V5.C3 (HIV-1)): > 50 µg/mL; neutralization IC80 (TZBD.02 (HIV-1)): 0.175 µg/mL; neutralization IC80 [5]: > 50 µg/mL; neutralization IC80 (ZM106.9 (HIV-1)): > 50 µg/mL; neutralization IC80 (BR025.9 (HIV-1)): 0.049 µg/mL; neutralization IC80 (ZM197.7 (HIV-1)): 6.67 µg/mL; neutralization IC80 (ZM146.7 (HIV-1)): > 50 µg/mL; neutralization IC80 (TZA125.17 (HIV-1)): 0.719 µg/mL; neutralization IC80 (DU151.02 (HIV-1)): < 0.023 µg/mL; neutralization IC80 (CNE40 (HIV-1)): > 50 µg/mL; neutralization IC80 (96ZM651_02 (HIV-1)): > 50 µg/mL; neutralization IC80 (CAP45.G3 (HIV-1)): < 0.023 µg/mL; neutralization IC80 (6785.V5.C14 (HIV-1)): < 0.023 µg/mL; neutralization IC80 (ZM176.66 (HIV-1)): 0.01 µg/mL; neutralization IC80 (CAP210.E8 (HIV-1)): 0.882 µg/mL; neutralization IC80 (CH181.12 (HIV-1)): 0.01 µg/mL; neutralization IC80 (CH117.4 (HIV-1)): 0.028 µg/mL; neutralization IC80 [6]: > 50 µg/mL; neutralization IC80 (ZM215.8 (HIV-1)): > 50 µg/mL; neutralization IC80 (CNE15 (HIV-1)): < 0.023 µg/mL; neutralization IC80 (0077_V1_C16 (HIV-1)): 0.075 µg/mL
